FireProtDB (doi:10.1021/bi00025a018)

B1: Ribonuclease HI, P0A7Y4 (parent)
chain: MLKQVEIFTDGSCLGNPGPGGYGAILRYRGREKTFSAGYTRTTNNRMELMAAIVALEALKEHCEVILSTDSQYVRQGITQWIHNWKKRGWKTADKKPVKNVDLWQRLDAALGQHQIKWEWVKGHAGHPENERCDELARAAAMNPTLEDTGYQVEV

Variants of: B1
Details: Escherichia coli (strain K12), Thermal, CD, NaCl 0.1 M, reversible: yes, structure 2RN2, whole UniProt chain shown
[1] = pH 3, 50.9 °C, glycine-HCl 10 mM
[2] = pH 5.5, 52.5 °C, Sodium acetate 10 mM

| Variant | ddG of mutation (higher = less stable) [1] | Tm (pH 3, glycine-HCl 10 mM) | change of melting temperature, mutant - wild type (higher = more stable) (pH 3, glycine-HCl 10 mM) | unfolding enthalpy (van 't Hoff) (pH 3, glycine-HCl 10 mM) | ddG of mutation (higher = less stable) [2] | Tm (pH 5.5, Sodium acetate 10 mM) | change of melting temperature, mutant - wild type (higher = more stable) (pH 5.5, Sodium acetate 10 mM) | unfolding enthalpy (van 't Hoff) (pH 5.5, Sodium acetate 10 mM) |
| --- | --- | --- | --- | --- | --- | --- | --- | --- |
| D134H | -0.5 kcal/mol | 53.6 °C | 1.7 °C | 106 kcal/mol | -1.9 kcal/mol | 59.5 °C | 7 °C | 107 kcal/mol |
| G23A | -0.7 kcal/mol | 53.2 °C | 2.3 °C | 99.3 kcal/mol | -0.5 kcal/mol | 54.3 °C | 1.8 °C | 91.8 kcal/mol |
| H62P | -1 kcal/mol | 54.3 °C | 3.4 °C | 110 kcal/mol | -1.1 kcal/mol | 56.6 °C | 4.1 °C | 102 kcal/mol |
| V74L | -1.1 kcal/mol | 54.6 °C | 3.7 °C | 119 kcal/mol | -0.9 kcal/mol | 55.8 °C | 3.3 °C | 91.2 kcal/mol |
